Source: US20170226158A1 (AstraZeneca / MedImmune, published 2017)

T1: SUMO-L-Myc fusion protein (recombinant bHLHZip domain of L-Myc fused with a small ubiquitin-like modifier … (UniProt P12524 281-364))
T1 construct: not shown: small ubiquitin-like modifier (SUMO) protein
T1 sequence (looked up): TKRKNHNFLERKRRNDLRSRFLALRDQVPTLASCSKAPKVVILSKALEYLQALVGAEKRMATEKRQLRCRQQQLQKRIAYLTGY

T2: CD73 (UniProt P21589 27-549, limits assumed)
T2 construct: Target antigen in phage ELISA; construct not described
T2 sequence (looked up): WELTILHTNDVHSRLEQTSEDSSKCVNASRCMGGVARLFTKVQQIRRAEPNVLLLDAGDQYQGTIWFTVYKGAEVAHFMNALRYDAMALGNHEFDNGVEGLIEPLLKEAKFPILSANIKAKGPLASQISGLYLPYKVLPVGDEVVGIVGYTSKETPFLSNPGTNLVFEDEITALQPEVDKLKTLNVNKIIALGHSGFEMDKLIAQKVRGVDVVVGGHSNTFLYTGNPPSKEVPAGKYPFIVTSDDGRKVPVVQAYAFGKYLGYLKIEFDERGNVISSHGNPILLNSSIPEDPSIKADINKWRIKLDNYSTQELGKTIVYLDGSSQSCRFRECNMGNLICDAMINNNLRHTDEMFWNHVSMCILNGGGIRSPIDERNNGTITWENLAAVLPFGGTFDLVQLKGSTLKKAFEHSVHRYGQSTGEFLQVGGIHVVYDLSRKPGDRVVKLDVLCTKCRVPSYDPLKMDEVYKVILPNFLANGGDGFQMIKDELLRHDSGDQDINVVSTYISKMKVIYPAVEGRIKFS

B1: LMYC mut8 (designed binder)
chain: DLGKKLLEAARAGQNDKVRILMANGAKVNAMDQYGFTPLHLAAWYGHRKIVKVLLKHGANVKAKDVHGFTPLHLAAWTGHLEIVKVLLKNGANVKARDNEGSTPLHLAALAGHLEIVKVLLKNGAKVNAQDKFGKTAFDISIENGNEKLAKILQKL
notes: Net charge 11; Tested on phage
B2: LMYC mut11 (designed binder)
chain: DLGKKLLEAARAGQNDKVRILMANGADVNAMDQYGFTPLHLAAWYGHRKIVKVLLKHGANVKAKDVHGFTPLHLAAWTGHRKIVKVLLKNGANVKARDNEGSTPLHLAALAGHLEIVKVLLKNGAKVNAQDKFGKTAFDISIENGNEKLAKILQKL
notes: Net charge 12; Tested on phage
B3: LMYC mut9 (designed binder)
chain: DLGKKLLEAARAGQNDKVRILMANGAKVNAMDQYGFTPLHLAAWYGHRKIVKVLLKHGANVKAKDVHGFTPLHLAAWTGHLEIVKVLLKNGAKVNARDNEGSTPLHLAALAGHLEIVKVLLKNGAKVNAQDKFGKTAFDISIENGNEKLAKILQKL
notes: as for B1
B4: LMYC mut7 (designed binder)
chain: DLGKKLLEAARAGQNDKVRILMANGANVKAMDQYGFTPLHLAAWYGHRKIVKVLLKHGANVKAKDVHGFTPLHLAAWTGHLEIVEVLLKNGADVNARDNEGSTPLHLAALAGHRKIVKVLLKNGAKVNAQDKFGKTAFDISIENGNEKLAKILQKL
notes: Tested on phage
B5: KRAS mut8 (designed binder)
chain: DLGKKLLEAARAGQNDKVRILMANGAKVNARDHTGFTPLHLAAQHGHRKIVKVLLKNGAKVNAVDWFGRTPLHLAAKMGHLEIVKVLLKHGANVKADDHNGRTPLHLAAWEGHLEIVKVLLKYGAKVNAQDKFGKTAFDISIENGNEKLAKILQKL
notes: as for B2
B6: KRAS mut7 (designed binder)
chain: DLGKKLLEAARAGQNDKVRILMANGANVNARDHTGFTPLHLAAQHGHLEIVKVLLKNGAKVNAVDWFGRTPLHLAAKMGHRKIVKVLLKHGANVKADDHNGRTPLHLAAWEGHLEIVKVLLKYGAKVNAQDKFGKTAFDISIENGNEKLAKILQKL
notes: as for B1
B7: KRAS mut11 (designed binder)
chain: DLGKKLLEAARAGQNDKVRILMANGAKVNARDHTGFTPLHLAAQHGHRKIVKVLLKNGAKVNAVDWFGRTPLHLAAKMGHRKIVKVLLKHGADVNADDHNGRTPLHLAAWEGHRKIVKVLLKYGAKVNAQDKFGKTAFDISIENGNEKLAKILQKL
notes: Net charge 16; Tested on phage
B8: KRAS mut9 (designed binder)
chain: DLGKKLLEAARAGQNDKVRILMANGAKVNARDHTGFTPLHLAAQHGHRKIVKVLLKNGANVKAVDWFGRTPLHLAAKMGHRKIVEVLLKHGANVKADDHNGRTPLHLAAWEGHRKIVKVLLKYGADVNAQDKFGKTAFDISIENGNEKLAKILQKL
notes: Net charge 14; Tested on phage
B9: KRAS mut6 (designed binder)
chain: DLGKKLLEAARAGQNDKVRILMANGAKVNARDHTGFTPLHLAAQHGHRKIVKVLLKNGADVNAVDWFGRTPLHLAAKMGHLEIVKVLLKHGAKVNADDHNGRTPLHLAAWEGHLEIVKVLLKYGAKVNAQDKFGKTAFDISIENGNEKLAKILQKL
notes: Net charge 10; Tested on phage
B10: KRAS mut10 (designed binder)
chain: DLGKKLLEAARAGQNDKVRILMANGAKVNARDHTGFTPLHLAAQHGHRKIVKVLLKNGAKVNAVDWFGRTPLHLAAKMGHLEIVKVLLKHGANVKADDHNGRTPLHLAAWEGHRKIVKVLLKYGAKVNAQDKFGKTAFDISVENGNEKLAKILQKL
notes: Net charge 15; Tested on phage
B11: CD73 mut11 (designed binder)
chain: DLGKKLLEAARAGQNDKVRILMANGAKVNAADTWGRTPLHLAAYHGHLEIVKVLLKHGANVNAEDIHGFTPLHLAALWGHRKIVKVLLKNGAKVNAVDWYGHTPLHLAAIDGHRKIVKVLLKHGAKVNAQDKFGKTAFDISIENGNEKLAKILQKL
notes: as for B1
B12: DARPin 1 (template L-Myc DARPin, net charge -13) (designed binder)
chain: DLGKKLLEAARAGQDDEVRILMANGADVNAMDQYGFTPLHLAAWYGHLEIVEVLLKHGADVNAKDVHGFTPLHLAAWTGHLEIVEVLLKNGADVNARDNEGSTPLHLAALAGHLEIVEVLLKNGADVNAQDKFGKTAFDISIDNGNEDLAEILQKL
notes: also called tDARPin S-13; S-13 tDARPin

biological target: T1, SUMO-L-Myc fusion protein (recombinant …); experiment: phage ELISA on target antigen, signal as % of parental WT

**Q.** How did the “% antigen binding activity retained (relative to parental)” value turn out when B1 was run?
**A.** > 50%

**Q.** How did the “% antigen binding activity retained (relative to parental)” value turn out when B2 was run?
**A.** > 50%

**Q.** How did the “% antigen binding activity retained (relative to parental)” value turn out when B3 was run?
**A.** > 50%

**Q.** With B4 as the binder, how does the “% antigen binding activity retained (relative to parental)” value read?
**A.** > 50%

biological target: T3, KRAS (UniProt P01116-2 1-188, limits assumed); experiment: as above
T3 construct: Target antigen in phage ELISA; construct not described

**Q.** With B5 as the binder, how does the “% antigen binding activity retained (relative to parental)” value read?
**A.** > 50%

**Q.** B6 was tested. Which “% antigen binding activity retained (relative to parental)” value did it give?
**A.** > 50%

**Q.** B7 was tested. Which “% antigen binding activity retained (relative to parental)” value did it give?
**A.** > 50%

**Q.** B8 was tested. Which “% antigen binding activity retained (relative to parental)” value did it give?
**A.** > 50%

**Q.** B9 was tested. Which “% antigen binding activity retained (relative to parental)” value did it give?
**A.** > 50%

**Q.** With B10 as the binder, how does the “% antigen binding activity retained (relative to parental)” value read?
**A.** > 50%

biological target: T2, CD73; experiment: as above

**Q.** B11 was tested. Which “% antigen binding activity retained (relative to parental)” value did it give?
**A.** > 50%

biological target: T1, SUMO-L-Myc fusion protein (recombinant …); experiment: second phage ELISA on coated antigens

**Q.** Does B12 bind?
**A.** binds
